From patent US20240301041A1

What was measured:
[1] = target: IgG binding protein (Protein A homolog SpsQ/SpsP) on S. pseudintermedius AHDRCC 98200 (Staphylococcus pseudintermedius); experiment: ELISA, coated S. pseudintermedius 98200, antibody 3.09E-07 M
[2] = target: IgG binding protein (Protein A homolog SpsQ/SpsP) on MRSP S. pseudintermedius 88493 (Staphylococcus pseudintermedius); experiment: ELISA, coated S. pseudintermedius 88493, antibody 6.03E-10 M
[3] = target: IgG binding protein (Protein A homolog SpsQ/SpsP) on S. intermedius 27369 (Staphylococcus intermedius); experiment: ELISA, coated S. intermedius 27369, antibody 1.18E-12 M
[4] = target: IgG binding protein (Protein A homolog SpsQ/SpsP) on S. pseudintermedius AHDRCC 98200 (Staphylococcus pseudintermedius); experiment: ELISA, coated S. pseudintermedius 98200, antibody 6.03E-10 M
[5] = target: IgG binding protein (Protein A homolog SpsQ/SpsP) on MRSP S. pseudintermedius 88493 (Staphylococcus pseudintermedius); experiment: ELISA, coated S. pseudintermedius 88493, antibody 9.42E-12 M
[6] = target: IgG binding protein (Protein A homolog SpsQ/SpsP) on S. intermedius 27369 (Staphylococcus intermedius); experiment: ELISA, coated S. intermedius 27369, antibody 3.86E-08 M
[7] = target: IgG binding protein (Protein A homolog SpsQ/SpsP) on MRSP S. pseudintermedius 88493 (Staphylococcus pseudintermedius); experiment: ELISA, coated S. pseudintermedius 88493, antibody 3.09E-07 M
[8] = target: IgG binding protein (Protein A homolog SpsQ/SpsP) on S. intermedius 27369 (Staphylococcus intermedius); experiment: ELISA, coated S. intermedius 27369, antibody 6.03E-10 M
[9] = target: IgG binding protein (Protein A homolog SpsQ/SpsP) on S. intermedius 27369 (Staphylococcus intermedius); experiment: ELISA, coated S. intermedius 27369, antibody 3.09E-07 M
[10] = target: IgG binding protein (Protein A homolog SpsQ/SpsP) on S. pseudintermedius AHDRCC 98200 (Staphylococcus pseudintermedius); experiment: ELISA, coated S. pseudintermedius 98200, antibody 9.42E-12 M
[11] = target: Protein A on the surface of S. aureus Newman wild-type (Staphylococcus aureus (strain Newman)) (UniProt P38507); experiment: ELISA, coated S. aureus Newman, antibody 1.47E-13 M
[12] = target: IgG binding protein (Protein A homolog SpsQ/SpsP) on MRSP S. pseudintermedius 88493 (Staphylococcus pseudintermedius); experiment: ELISA, coated S. pseudintermedius 88493, antibody 3.86E-08 M
[13] = target: IgG binding protein (Protein A homolog SpsQ/SpsP) on MRSP S. pseudintermedius 88493 (Staphylococcus pseudintermedius); experiment: ELISA, coated S. pseudintermedius 88493, antibody 1.18E-12 M
[14] = target: Protein A on the surface of S. aureus Newman wild-type (Staphylococcus aureus (strain Newman)) (UniProt P38507); experiment: ELISA, coated S. aureus Newman, antibody 4.82E-09 M
[15] = target: Protein A on the surface of S. aureus Newman wild-type (Staphylococcus aureus (strain Newman)) (UniProt P38507); experiment: ELISA, coated S. aureus Newman, antibody 1.18E-12 M
[16] = target: IgG binding protein (Protein A homolog SpsQ/SpsP) on S. pseudintermedius AHDRCC 98200 (Staphylococcus pseudintermedius); experiment: ELISA, coated S. pseudintermedius 98200, antibody 1.18E-12 M
[17] = target: IgG binding protein (Protein A homolog SpsQ/SpsP) on MRSP S. pseudintermedius 88493 (Staphylococcus pseudintermedius); experiment: ELISA, coated S. pseudintermedius 88493, antibody 4.82E-09 M
[18] = target: Protein A on the surface of S. aureus Newman wild-type (Staphylococcus aureus (strain Newman)) (UniProt P38507); experiment: ELISA, coated S. aureus Newman, antibody 7.54E-11 M
[19] = target: Protein A on the surface of S. aureus Newman wild-type (Staphylococcus aureus (strain Newman)) (UniProt P38507); experiment: ELISA, coated S. aureus Newman, antibody 6.03E-10 M
[20] = target: IgG binding protein (Protein A homolog SpsQ/SpsP) on MRSP S. pseudintermedius 88493 (Staphylococcus pseudintermedius); experiment: ELISA, coated S. pseudintermedius 88493, antibody 1.47E-13 M
[21] = target: IgG binding protein (Protein A homolog SpsQ/SpsP) on S. pseudintermedius AHDRCC 98200 (Staphylococcus pseudintermedius); experiment: ELISA, coated S. pseudintermedius 98200, antibody 3.86E-08 M
[22] = target: IgG binding protein (Protein A homolog SpsQ/SpsP) on S. intermedius 27369 (Staphylococcus intermedius); experiment: ELISA, coated S. intermedius 27369, antibody 4.82E-09 M
[23] = target: IgG binding protein (Protein A homolog SpsQ/SpsP) on S. pseudintermedius AHDRCC 98200 (Staphylococcus pseudintermedius); experiment: ELISA, coated S. pseudintermedius 98200, antibody 1.47E-13 M
[24] = target: Protein A on the surface of S. aureus Newman wild-type (Staphylococcus aureus (strain Newman)) (UniProt P38507); experiment: ELISA, coated S. aureus Newman, antibody 3.86E-08 M
[25] = target: IgG binding protein (Protein A homolog SpsQ/SpsP) on S. pseudintermedius AHDRCC 98200 (Staphylococcus pseudintermedius); experiment: ELISA, coated S. pseudintermedius 98200, antibody 4.82E-09 M
[26] = target: IgG binding protein (Protein A homolog SpsQ/SpsP) on S. intermedius 27369 (Staphylococcus intermedius); experiment: ELISA, coated S. intermedius 27369, antibody 7.54E-11 M
[27] = target: IgG binding protein (Protein A homolog SpsQ/SpsP) on S. intermedius 27369 (Staphylococcus intermedius); experiment: ELISA, coated S. intermedius 27369, antibody 1.47E-13 M
[28] = target: IgG binding protein (Protein A homolog SpsQ/SpsP) on S. pseudintermedius AHDRCC 98200 (Staphylococcus pseudintermedius); experiment: ELISA, coated S. pseudintermedius 98200, antibody 7.54E-11 M
[29] = target: IgG binding protein (Protein A homolog SpsQ/SpsP) on MRSP S. pseudintermedius 88493 (Staphylococcus pseudintermedius); experiment: ELISA, coated S. pseudintermedius 88493, antibody 7.54E-11 M
[30] = target: Protein A on the surface of S. aureus Newman wild-type (Staphylococcus aureus (strain Newman)) (UniProt P38507); experiment: ELISA, coated S. aureus Newman, antibody 3.09E-07 M
[31] = target: IgG binding protein (Protein A homolog SpsQ/SpsP) on S. intermedius 27369 (Staphylococcus intermedius); experiment: ELISA, coated S. intermedius 27369, antibody 9.42E-12 M
[32] = target: Protein A on the surface of S. aureus Newman wild-type (Staphylococcus aureus (strain Newman)) (UniProt P38507); experiment: ELISA, coated S. aureus Newman, antibody 9.42E-12 M
[33] = target: Protein A on the surface of S. aureus Newman wild-type (Staphylococcus aureus (strain Newman)) (UniProt P38507); experiment: cell-based or functional assay
[34] = target: IgG binding protein (Protein A homolog SpsQ/SpsP) on S. intermedius 27369 (Staphylococcus intermedius); experiment: cell-based or functional assay
[35] = target: IgG binding protein (Protein A homolog SpsQ/SpsP) on S. pseudintermedius AHDRCC 98200 (Staphylococcus pseudintermedius); experiment: cell-based or functional assay

Row | Substance | ELISA luminescent signal [1] | ELISA luminescent signal [2] | ELISA luminescent signal [3] | ELISA luminescent signal [4] | ELISA luminescent signal [5] | ELISA luminescent signal [6] | ELISA luminescent signal [7] | ELISA luminescent signal [8] | ELISA luminescent signal [9] | ELISA luminescent signal [10] | ELISA luminescent signal [11] | ELISA luminescent signal [12] | ELISA luminescent signal [13] | ELISA luminescent signal [14] | ELISA luminescent signal [15] | ELISA luminescent signal [16] | ELISA luminescent signal [17] | ELISA luminescent signal [18] | ELISA luminescent signal [19] | ELISA luminescent signal [20] | other results
1 | hIgG1 control (REGN1932) (antibody) | 132000 | 11000 | 9740 | 4770 | 7980 | 34800 | 43900 | 5300 | 123000 | 1460 | 18600 | 14500 | 8920 | 652000 | 30200 | 2830 | 8950 | 253000 | 509000 | 8190 | ELISA luminescent signal [21]: 36400; ELISA luminescent signal [22]: 42100; ELISA luminescent signal [23]: 1480; ELISA luminescent signal [24]: 434000; ELISA luminescent signal [25]: 8040; ELISA luminescent signal [26]: 2680; ELISA luminescent signal [27]: 25300; ELISA luminescent signal [28]: 2590; ELISA luminescent signal [29]: 7560; ELISA luminescent signal [30]: 506000; ELISA luminescent signal [31]: 1610; ELISA luminescent signal [32]: 72500
2 | hIgG1*/* control (REGN4440) (antibody) | 15200 | 7080 | 2210 | 2760 | 6150 | 3850 | 14700 | 3010 | 11100 | 1170 | 15500 | 6470 | 6710 | 19400 | 17100 | 2170 | 7360 | 24400 | 27500 | 12300 | ELISA luminescent signal [21]: 5100; ELISA luminescent signal [22]: 2490; ELISA luminescent signal [23]: 1120; median cfu/mL after 16 h in 50% normal human serum, mAb 270 ug/mL [33]: 7e+06 cfu/mL; median cfu/mL after 16 h in 50% normal human serum, mAb 270 ug/mL [34]: 8e+06 cfu/mL; median cfu/mL after 16 h in 50% normal human serum, mAb 270 ug/mL [35]: 7.5e+06 cfu/mL; ELISA luminescent signal [24]: 27600; ELISA luminescent signal [25]: 2410; ELISA luminescent signal [26]: 2510; ELISA luminescent signal [27]: 896; ELISA luminescent signal [28]: 2240; ELISA luminescent signal [29]: 6370; ELISA luminescent signal [30]: 38800; ELISA luminescent signal [31]: 775; ELISA luminescent signal [32]: 16700
